US20170298096A1 (CANIMGUIDE THERAPEUTICS, published 2017)
No end group written: not given here.

Target: T1, His-tagged P3028 (human, not fully specified)
T1 construct: the tag is put first after 'PGE73=His-tag-P3028'; also called PGE73; not shown: His-tag
T1 peptide: {His‑tag}-VFDEFKPLVEEPQNLIK
Assay: chip ELISA

Binder	ELISA signal
KKLDTFFVRLSLFTER [P28R K9R]	374
KKLDTFFVKLSSFTER [P28R L12S]	478
KKLDTFFVKLSLFTEL [P28R R16L]	217
KKLDTFFVKESLFTER [P28R L10E]	81
KKLDTFFVKLSLFTES [P28R R16S]	184
KKLDTFFVKLALFTER [P28R S11A]	318
KKLDTFFVKKSLFTER [P28R L10K]	285
KKLDTFFVKLSLFTET [P28R R16T]	292
KKLDTFFVKHSLFTER [P28R L10H]	293
KKIDTFFVKLSLFTER [P28R L3I]	454
KKLDTFFVKLSLFTEK [P28R R16K]	291
KKLDTFFVKLSLFTEN [P28R R16N]	311
KKLDTFFVKQSLFTER [P28R L10Q]	470
KKLDTFFVKLSLFTEF [P28R R16F]	297
KKLDTFFVKLSVFTER [P28R L12V]	545
KKLDTFFVKRSLFTER [P28R L10R]	439
KKLDTFFVYLSLFTER [P28R K9Y]	198
KKADTFFVKLSLFTER [P28R L3A]	427
KKLDTFFVKLSLFTEQ [P28R R16Q]	133
KKLDTFFVKLSLFTEE [P28R R16E]	107
KKLDTFFVKLSEFTER [P28R L12E]	82
KKQDTFFVKLSLFTER [P28R L3Q]	473
KKKDTFFVKLSLFTER [P28R L3K]	386
KKLDTFFVKLSAFTER [P28R L12A]	462

Binder	ELISA signal
KKLDTFFVKMSLFTER [P28R L10M]	460
KKLDTFFVKISLFTER [P28R L10I]	415
KKLDTFFVKLSLFTEW [P28R R16W]	202
KKHDTFFVKLSLFTER [P28R L3H]	477
KKLDTFFVKLSLFTEI [P28R R16I]	176
KKLDTFFVKSSLFTER [P28R L10S]	351
KKLDTFFVKLSQFTER [P28R L12Q]	651
KKLDTFFVKLSDFTER [P28R L12D]	89
KKLDTFFVKLSFFTER [P28R L12F]	389
KKLDTFFVKYSLFTER [P28R L10Y]	382
KKLDTFFVVLSLFTER [P28R K9V]	248
KKMDTFFVKLSLFTER [P28R L3M]	460
KKLDTFFVKLSIFTER [P28R L12I]	456
KKVDTFFVKLSLFTER [P28R L3V]	377
KKLDTFFVKLSYFTER [P28R L12Y]	320
KKLDTFFVKLSRFTER [P28R L12R]	483
KKLDTFFVKLSLFTEM [P28R R16M]	238
KKLDTFFVKLSLFTEV [P28R R16V]	254
KKTDTFFVKLSLFTER [P28R L3T]	451
KKFDTFFVKLSLFTER [P28R L3F]	393
KKLDTFFVWLSLFTER [P28R K9W]	245
KKDDTFFVKLSLFTER [P28R L3D]	492
KKLDTFFVSLSLFTER [P28R K9S]	274
KKLDTFFVKLSTFTER [P28R L12T]	437

Binder	ELISA signal
KKLDTFFVKVSLFTER [P28R L10V]	658
KKLDTFFVKLSLFTED [P28R R16D]	133
KKLDTFFVKWSLFTER [P28R L10W]	316
KKEDTFFVKLSLFTER [P28R L3E]	528
KKSDTFFVKLSLFTER [P28R L3S]	393
KKLDTFFVKDSLFTER [P28R L10D]	102
KKWDTFFVKLSLFTER [P28R L3W]	341
KKLDTFFVKLSLFTEY [P28R R16Y]	311
KKLDTFFVKLSHFTER [P28R L12H]	460
KKNDTFFVKLSLFTER [P28R L3N]	374
KKRDTFFVKLSLFTER [P28R L3R]	370
KKLDTFFVKLSKFTER [P28R L12K]	355
KKLDTFFVKFSLFTER [P28R L10F]	403
KKLDTFFVKLSLFTEA [P28R R16A]	226
KKYDTFFVKLSLFTER [P28R L3Y]	344
KKLDTFFVKLSLFTEH [P28R R16H]	239
KKLDTFFVKLSNFTER [P28R L12N]	462
KKLDTFFVKNSLFTER [P28R L10N]	365
KKLDTFFVKASLFTER [P28R L10A]	426
KKLDTFFVKTSLFTER [P28R L10T]	399
KKLDTFFVKLSMFTER [P28R L12M]	499
KKLDTFFVKLSWFTER [P28R L12W]	409
KKLDTFFVTLSLFTER [P28R K9T]	347
